Assays:
[1] = Plasma insulin aspart pharmacokinetics after a single subcutaneous dose (LC-MS/MS, noncompartmental); assay type: in vivo, human; details: single 0.3 U/kg s.c.; for INS-AUCinf, gMean (% CV) / INS-Cmax, gMean (% CV) / INS-AUClast, gMean (% CV): healthy Japanese males, fasting, plasma, LC-MS/MS, geometric mean (%CV); for INS-AUCinf, gMean (% CV): extrapolated to infinity; for INS-AUCinf, gMean (% CV) / INS-AUClast, gMean (% CV): N = 39/40; for INS-Cmax, gMean (% CV): N = 39 SAR-Asp, 40 NN-Asp-Jp; for INS-AUClast, gMean (% CV): time 0 to last quantifiable point
Excerpt: Following a screening visit 3–28 days before the first period, subjects enrolled into the study were admitted to the study clinic on the day before dosing. On the day of treatment, they were randomized (computer-generated by sponsor) to one of the two treatment sequences (see Supplementary Fig. S1). Subjects received a single subcutaneous dose of 0.3 U/kg SAR-Asp or NN-Asp-Jp in the first treatment period in randomized order followed by the other drug in the second treatment period. A wash-out period of 7–18 days separated each treatment period, with an end-of-study visit performed 4–8 days after the last dose.
Venous blood samples for pharmacokinetic analysis were collected before dosing of study drug, and then every 15 to 60 min during the 10 h clamp period. Samples were centrifuged within 20 min of collection. Plasma was collected and kept frozen (− 60 to − 80 °C) until analysis. Plasma concentrations of SAR-Asp and NN-Asp-Jp were analyzed by using a validated liquid chromatography-tandem mass spectrometry (LC–MS/MS) assay at Syneos Health (Quebec, Canada). Plasma concentrations within the validated concentration range (100–8000 pg/mL) were used to calculated pharmacokinetic parameters. Inter-assay precision (% coefficient of variation [CV]) and inter-assay accuracy (%bias) during validation were ≤ 15%.
The pharmacokinetic analysis dataset included subjects who completed at least one treatment period, had measurable insulin aspart concentrations and no major or critical deviations. Parameter estimates for SAR-Asp and NN-Asp-Jp were calculated by using standard noncompartmental methods with Phoenix WinNonlin 8.1 (Certara, Princeton, NJ). Area under the plasma insulin aspart concentration–time curve was calculated by the trapezoidal method from 0 to the time of the last concentration above the limit of quantification (INS-AUClast) and extrapolated to infinity (INS-AUCinf). Maximum plasma insulin aspart concentration observed (INS-Cmax) and INS-AUClast were the primary pharmacokinetic endpoints of the study. INS-AUCinf was a secondary endpoint.
(§1) Log-transformed pharmacokinetic and pharmacodynamic parameter estimates for SAR-Asp and NN-Asp-Jp were analyzed using a linear mixed-effects model with period, sequence, and treatment as fixed effects and subject as a random effect. For each parameter, the model-based difference in treatment means along with the confidence limits (90% for pharmacokinetic parameters, 95% for pharmacodynamic parameters) was back-transformed to provide estimates for the ratio of geometric means (gMean) between treatments (SAR-Asp/NN-Asp-Jp) and the corresponding confidence limits. Similarity for the pharmacokinetic parameters (INS-AUCinf and INS-Cmax) and bioequipotency for the pharmacodynamic parameters (GIR-AUC0–10 h and GIRmax) was concluded if the confidence limits (90% and 95% confidence intervals [CIs], respectively) of the treatment ratios were entirely within the 0.80–1.25 equivalence interval, in agreement with regulatory guidance[2],[18]. Data was analyzed using SAS v9.4 (SAS Institute, Cary, NC).

healthy Japanese males = assay: 10 h automated euglycemic clamp, glucose infusion rate (glucodynamics); assay type: in vivo, human; details: single 0.3 U/kg s.c.; for GIR-AUC0-10 h, gMean (% CV) / GIRmax, gMean (% CV) / median GIR-tmax (time to reach GIRmax): healthy Japanese males, 10 h euglycemic clamp; for GIR-AUC0-10 h, gMean (% CV): body weight standardized GIR, N = 36 SAR-Asp, 38 NN-Asp-Jp; for GIR-AUC0-10 h, gMean (% CV) / GIRmax, gMean (% CV): geometric mean (%CV); for GIRmax, gMean (% CV): smoothed GIR (LOESS, 0.06), N = 36/38
Procedure: Each dosing visit included a 10 h automated euglycemic clamp procedure (STG-55, Artificial Endocrine Pancreas; Nikkiso Co, Ltd, Tokyo, Japan)[13]. The premise of performing the clamp procedure is that the blood glucose lowering effect of an administered insulin is antagonized by a variable infusion of glucose so that blood glucose is maintained (or clamped) at a target level[2],[14]. The metabolic profile of the investigated insulin is characterized by the glucose infusion rate (GIR) needed to keep blood glucose as close as possible at its predefined target level during the glucose clamp.
Following an overnight fast of at least 10 h, subjects were connected to the clamp device and their baseline blood glucose was determined (via glucose oxidase sensors that measure whole-blood glucose levels) before dosing of the study drug. For each subject, this was calculated as the mean of four glucose measurements at 30, 20, 10 and 1 min before administration of the study drugs. The clamp procedure was not performed in those subjects having a baseline glucose level less than 70 mg/dL ([…]). After dosing, onset of insulin action in each subject was when the blood glucose dropped below the target level of the clamp procedure, which was when it was 5 mg/dL (0.28 mmol/L) less than their fasting baseline value.
Blood glucose levels were measured in 1-min intervals, and using a predefined algorithm the clamp device automatically administered a variable infusion of 10% glucose in response to changes in glucose to maintain each subject at their target glucose level. The GIR, being the amount of external glucose needed to keep a subject’s blood glucose concentration at its target level, was continuously measured, and recorded by the STG-55 device. GIR profiles reflected the metabolic effects of SAR-Asp and NN-Asp-Jp over time.
The GIR over time was the primary pharmacodynamic parameter measured during the clamp procedure. The area under the body weight-standardized GIR time curve [GIR-AUC] measured insulin mediated glucose uptake into tissues. Subjects completing at least one clamp procedure with no major or critical deviations were included in the pharmacodynamic analysis dataset. Individual GIR values in each treatment group were standardized for body weight and subjected to a smoothing procedure using a locally weighted scatterplot smoothing (LOESS) function (SAS, PROC LOESS, factor 0.06). A smoothing factor of 6% was used based on the expected morphology of the GIR-profiles. Individual blood glucose levels were also subjected to a smoothing procedure. Fitted data were used to calculate the pharmacodynamic parameters, including the primary parameters of maximum smoothed body weight standardized GIR (GIRmax) and GIR-AUC over 10 h (GIR-AUC0–10 h), and the secondary parameter of time to reach GIRmax (GIR-tmax).
as §1

[2] = ratio of geometric means, linear mixed-effects model, equivalence range 0.80–1.25
[3] = ratio of geometric means, linear mixed-effects model, 10 h clamp, equivalence range 0.80–1.25

insulin aspart [SAR-Asp]
INS-AUCinf, gMean (% CV) [1]: 15,400 (26) pg·h/mL
INS-Cmax, gMean (% CV) [1]: 6690 (32) pg/mL
INS-AUClast, gMean (% CV) [1]: 15,300 (27) pg·h/mL
INS-AUCinf mean ratio SAR-Asp/NN-Asp-Jp, point estimate (90% CI) [1, 2]: 1.02
INS-AUClast mean ratio SAR-Asp/NN-Asp-Jp, point estimate (90% CI) [1, 2]: 1.02
INS-Cmax mean ratio SAR-Asp/NN-Asp-Jp, point estimate (90% CI) [1, 2]: 1.00
GIR-AUC0-10 h, gMean (% CV) (healthy Japanese males): 2054.12 (22.2) mg/kg
GIRmax, gMean (% CV) (healthy Japanese males): 8.70 (20.9) mg/(kg·min)
median GIR-tmax (time to reach GIRmax) (healthy Japanese males): 2.82 h
GIR-AUC0-10 h mean ratio SAR-Asp/NN-Asp-Jp, point estimate (95% CI) (healthy Japanese males; [3]): 1.00
GIRmax mean ratio SAR-Asp/NN-Asp-Jp, point estimate (95% CI) (healthy Japanese males; [3]): 1.01

insulin aspart [NN-Asp-Jp]
INS-AUCinf, gMean (% CV) [1]: 15,200 (27) pg·h/mL
INS-Cmax, gMean (% CV) [1]: 6690 (31) pg/mL
INS-AUClast, gMean (% CV) [1]: 15,100 (27) pg·h/mL
GIR-AUC0-10 h, gMean (% CV) (healthy Japanese males): 2098.06 (23.5) mg/kg
GIRmax, gMean (% CV) (healthy Japanese males): 8.72 (21.0) mg/(kg·min)
median GIR-tmax (time to reach GIRmax) (healthy Japanese males): 2.35 h

Reference: paper PMC8617249, “Pharmacokinetic and pharmacodynamic similarity between SAR341402 insulin aspart and Japan-approved NovoRapid in healthy Japanese subjects” (Scientific Reports, 2021)
